# Laboratory results published in patent US9144594B2, “Cathepsin L mediated diseases and associated methods and products” (University of Miami, priority 2005, dated 2015).
# Entries after “also recorded” stand apart in the source; their conditions may differ.
# B1: dynK44A: dominant-negative dynamin mutant that cannot bind GTP (protein, UniProt Q05193 1-864, looked up, variant K44A)
# Dynamin-1: MGNRGMEDLIPLVNRLQDAFSAIGQNADLDLPQIAVVGGQSAGASSVLENFVGRDFLPRGSGIVTRRPLVLQLVNATTEYAEFLHCKGKKFTDFEEVRLEIEAETDRVTGTNKGISPVPINLRVYSPHVLNLTLVDLPGMTKVPVGDQPPDIEFQIRDMLMQFVTKENCLILAVSPANSDLANSDALKVAKEVDPQGQRTIGVITKLDLMDEGTDARDVLENKLLPLRRGYIGVVNRSQKDIDGKKDITAALAAERKFFLSHPSYRHLADRMGTPYLQKVLNQQLTNHIRDTLPGLRNKLQSQLLSIEKEVEEYKNFRPDDPARKTKALLQMVQQFAVDFEKRIEGSGDQIDTYELSGGARINRIFHERFPFELVKMEFDEKELRREISYAIKNIHGIRTGLFTPDMAFETIVKKQVKKIREPCLKCVDMVISELISTVRQCTKKLQQYPRLREEMERIVTTHIREREGRTKEQVMLLIDIELAYMNTNHEDFIGFANAQQRSNQMNKKKTSGNQDEILVIRKGWLTINNIGIMKGGSKEYWFVLTAENLSWYKDDEEKEKKYMLSVDNLKLRDVEKGFMSSKHIFALFNTEQRNVYKDYRQLELACETQEEVDSWKASFLRAGVYPERVGDKEKASETEENGSDSFMHSMDPQLERQVETIRNLVDSYMAIVNKTVRDLMPKTIMHLMINNTKEFIFSELLANLYSCGDQNTLMEESAEQAQRRDEMLRMYHALKEALSIIGDINTTTVSTPMPPPVDDSWLQVQSVPAGRRSPTSSPTPQRRAPAVPPARPGSRGPAPGPPPAGSALGGAPPVPSRPGASPDPFGPPPQVPSRPNRAPPGVPSRSGQASPSRPESPRPPFDL
# B2: dynR725A: dynamin mutant (SEQ ID NO.4) with impaired GTP hydrolysis capacity (protein, listed as Homo sapiens)
# chain: MGNRGMEDLIPLVNRLQDAFSAIGQNADLDLPQIAVVGGQSAGKSSVLENFVGRDFLPRGSGIVTRRPLVLQLVNATTEYAEFLHCKGKKFTDFEEVRLEIEAETDRVTGTNKGISPVPINLRVYSPHVLNLTLVDLPGMTKVPVGDQPPDIEFQIRDMLMQFVTKENCLILAVSPANSDLANSDALKVAKEVDPQGQRTIGVITKLDLMDEGTDARDVLENKLLPLRRGYIGVVNRSQKDIDGKKDITAALAAERKFFLSHPSYRHLADRMGTPYLQKVLNQQLTNHIRDTLPGLRNKLQSQLLSIEKEVEEYKNFRPDDPARKTKALLQMVQQFAVDFEKRIEGSGDQIDTYELSGGARINRIFHERFPFELVKMEFDEKELRREISYAIKNIHGIRTGLFTPDMAFETIVKKQVKKIREPCLKCVDMVISELISTVRQCTKKLQQYPRLREEMERIVTTHIREREGRTKEQVMLLIDIELAYMNTNHEDFIGFANAQQRSNQMNKKKTSGNQDEILVIRKGWLTINNIGIMKGGSKEYWFVLTAENLSWYKDDEEKEKKYMLSVDNLKLRDVEKGFMSSKHIFALFNTEQRNVYKDYRQLELACETQEEVDSWKASFLRAGVYPERVGDKEKASETEENGSDSFMHSMDPQLERQVETIRNLVDSYMAIVNKTVRDLMPKTIMHLMINNTKEFIFSELLANLYSCGDQNTLMEESAEQAQRADEMLRMYHALKEALSIIGDINTTTVSTPMPPPVDDSWLQVQSVPAGRRSPTSSPTPQRRAPAVPPARPGSRGPAPGPPPAGSALGGAPPVPSRPGASPDPFGPPPQVPSRPNRAPPGVPSRSGQASPSRPESPRPPFDL
# B3: dynK694A: dominant activator dynamin mutant impaired in self-assembly (protein)
# chain: MGNRGMEDLIPLVNRLQDAFSAIGQNADLDLPQIAVVGGQSAGKSSVLENFVGRDFLPRGSGIVTRRPLVLQLVNATTEYAEFLHCKGKKFTDFEEVRLEIEAETDRVTGTNKGISPVPINLRVYSPHVLNLTLVDLPGMTKVPVGDQPPDIEFQIRDMLMQFVTKENCLILAVSPANSDLANSDALKVAKEVDPQGQRTIGVITKLDLMDEGTDARDVLENKLLPLRRGYIGVVNRSQKDIDGKKDITAALAAERKFFLSHPSYRHLADRMGTPYLQKVLNQQLTNHIRDTLPGLRNKLQSQLLSIEKEVEEYKNFRPDDPARKTKALLQMVQQFAVDFEKRIEGSGDQIDTYELSGGARINRIFHERFPFELVKMEFDEKELRREISYAIKNIHGIRTGLFTPDMAFETIVKKQVKKIREPCLKCVDMVISELISTVRQCTKKLQQYPRLREEMERIVTTHIREREGRTKEQVMLLIDIELAYMNTNHEDFIGFANAQQRSNQMNKKKTSGNQDEILVIRKGWLTINNIGIMKGGSKEYWFVLTAENLSWYKDDEEKEKKYMLSVDNLKLRDVEKGFMSSKHIFALFNTEQRNVYKDYRQLELACETQEEVDSWKASFLRAGVYPERVGDKEKASETEENGSDSFMHSMDPQLERQVETIRNLVDSYMAIVNKTVRDLMPKTIMHLMINNTAEFIFSELLANLYSCGDQNTLMEESAEQAQRRDEMLRMYHALKEALSIIGDINTTTVSTPMPPPVDDSWLQVQSVPAGRRSPTSSPTPQRRAPAVPPARPGSRGPAPGPPPAGSALGGAPPVPSRPGASPDPFGPPPQVPSRPNRAPPGVPSRSGQASPSRPESPRPPFDL
# Experiments:
# [1] = tested on: dynamin-dynamin interactions; experiment: FLIM analysis of dynamin-dynamin interactions (self-assembly) in podocytes; type: cell-based, mouse; conditions: in ps
# In short: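 Dynamin overexpressed in podocytes by adenovirus. Fixed cells stained with equal amounts of anti-dynamin monoclonal antibodies conjugated to Alexa-488 (donor) or Alexa-568 (acceptor). Self-assembly scored by FRET-shortened Alexa-488 fluorescence lifetime (acceptor within ≈100 Å).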
# podocytes = experiment: Podocyte motility, modified Boyden chamber assay; type: cell-based, mouse; conditions: for podocyte motility, in words: adenoviral overexpression
# Source text: This study examined the role of dynamin in actin dynamics of podocytes. An adenoviral expression system was utilized to obtain expression of various dynamin mutants with more than 90% infection efficiency in cultured differentiated mouse podocytes and analyzed the organization of the actin cytoskeleton, their migratory and endocytotic behavior (FIG. 1). […] This type of actin rearrangement in cultured podocytes is resembling actin rearrangement in damaged podocytes during proteinuria in situ (Smoyer and Mundel, 1998). […] Thus, the consequence on actin dynamics in podocytes was examined when dynamin is hyperactive by expressing known dominant activators, dynK694A and dynR725A (SEQ ID NO.4). Both mutants are predicted to live longer in the GTP-bound form. […] To further examine this surprising phenotype in a biological context, motility assays were performed next using a modified Boyden Chamber assay.
# Podocyte migration was analyzed using a 12-well chemotaxis chamber (Neuro Probe) according to the manufacturer's protocol. In brief, differentiated podocytes were treated with 50 μg/ml of LPS or PAN for 24 h and then harvested for the migration assay. Bottom plates were coated with type-I collagen, while upper plates were loaded with equal number of cells (5×10^4) suspended in medium. The chamber was incubated at 37° C. for 4 h before unassembled. The membrane was then taken out, processed and finally stained with diamidino phenylindole (DAPI) (Vector). The average number of migrated cells was counted in four fields in six independent experiments.
# Podocytes were grown under non-permissive conditions to 70% confluence. Cells were washed twice with 1×PBS and infected with 1.2 ml of serum-free DMEM media containing 100 μl transactivator virus, 100 μl virus expressing dyn1 or dyn2. After 2 h of infection at 37° C., media containing virus was replaced with full DMEM. If cells were treated with LPS or PAN, 50 μg/ml of LPS or 50 μg/ml PAN was added at this point. 18-24 h post-infection, cells were detached using trypsin and processed either for subcellular fractionation or tested in the motility assays as described in (Reiser et al., J Biol Chem 279, 34827-34832 (2004)). When stated, 20 μM of Z-FF-FMK CatL specific inhibitor (Calbiochem, San Diego, Calif.) was added simultaneously with addition of LPS.
# dynamin = experiment: Dynamin self-assembly, apparent affinity measured in vitro; type: biochemical
# Source text: The fact that this significant decrease in the fluorescence lifetime of ECFP is statistically insignificant is due to high fluctuations of the lifetimes between different cells (high error bar in Table 3). This is most likely due to ability of dynK694A to overcome its assembly defect under certain circumstances as shown in vitro. The fact that ECFP-dynK694A has a faster lifetime than ECFP-dynI690K is in agreement with its less severe assembly defect measured in vitro (apparent affinity of dynK694A is ˜7-fold lower then dynWT, whereas it is unmeasurable for dynI690K).
# [2] = Table 1, donor GTPase-Alexa488, acceptor Hudy1-Alexa568, podocytes overexpressing the dynamin variant
# [3] = Table 4, donor GTPase-a488, acceptor Hudy1-a568
Molecule,"Mean Lifetime (γ1) [1, 2]","Mean Lifetime (γ1) ([1]; Table 4, donor GTPase-a488, acceptor GTPase-a568)","Mean Lifetime (γ1) [1, 3]","podocyte motility, in words (podocytes)","LPS-induced increase in podocyte motility, in words (podocytes; LPS-treated podocytes)","apparent affinity for self-assembly, fold lower than dynWT (dynamin) [fold]"
dynWT: wild type dynamin overexpressed by adenovirus or delivered as dynamin 1 cDNA,2212 ± 65,2423 ± 46,2254 ± 60,did not change podocyte motility,–,–
B1,–,–,2515 ± 43,dramatically increased cell motility,–,–
B2,2408 ± 128,–,–,significantly decreased podocyte motility; also recorded: decreasing motility,blocked the LPS-induced increase in podocyte motility,–
B3,–,–,2408 ± 40,did not change podocyte motility,–,~7
